Results on two molecules are retold here after US20100189722A1 (Boehringer Ingelheim, published 2010).

For the assay, the target named is T1, CD37 antigen (cellular CD37 on Ramos Burkitt lymphoma cells; also on RPMI 8226 multiple myeloma cells) (human, UniProt P11049 1-281).
T1 sequence (looked up): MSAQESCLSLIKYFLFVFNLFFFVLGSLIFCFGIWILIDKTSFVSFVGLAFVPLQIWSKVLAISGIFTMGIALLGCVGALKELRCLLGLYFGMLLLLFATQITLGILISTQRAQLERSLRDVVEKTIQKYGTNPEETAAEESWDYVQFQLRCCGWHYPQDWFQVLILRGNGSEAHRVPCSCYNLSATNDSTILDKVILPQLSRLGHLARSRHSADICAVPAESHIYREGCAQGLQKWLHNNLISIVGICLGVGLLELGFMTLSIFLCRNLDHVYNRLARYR
The assay is described as follows: cell-based or functional assay.

B1: Fc-engineered chimeric anti-CD37 antibody A2 (S239D/I332E) (antibody, human IgG1, kappa)
heavy: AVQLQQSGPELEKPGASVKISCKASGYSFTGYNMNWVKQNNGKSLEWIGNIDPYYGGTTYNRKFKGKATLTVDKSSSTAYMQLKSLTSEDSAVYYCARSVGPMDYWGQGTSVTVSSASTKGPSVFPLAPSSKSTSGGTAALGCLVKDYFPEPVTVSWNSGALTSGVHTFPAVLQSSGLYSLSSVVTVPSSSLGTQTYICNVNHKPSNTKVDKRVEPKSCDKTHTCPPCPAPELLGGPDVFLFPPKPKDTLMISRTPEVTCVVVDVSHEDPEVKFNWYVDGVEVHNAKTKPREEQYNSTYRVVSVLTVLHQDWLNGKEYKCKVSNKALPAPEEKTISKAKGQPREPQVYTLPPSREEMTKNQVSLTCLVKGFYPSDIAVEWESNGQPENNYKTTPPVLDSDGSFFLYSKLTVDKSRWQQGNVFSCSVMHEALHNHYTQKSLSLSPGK
light: DIQMTQSPASLSASVGETVTITCRTSENVYSYLAWYQQKQGKSPQLLVSFAKTLAEGVPSRFSGSGSGTQFSLKISSLQPEDSGSYFCQHHSDNPWTFGGGTELEIKRTVAAPSVFIFPPSDEQLKSGTASVVCLLNNFYPREAKVQWKVDNALQSGNSQESVTEQDSKDSTYSLSSTLTLSKADYEKHKVYACEVTHQGLSSPVTKSFNRGEC
As to B1, the “ADCC EC50 on RPMI 8226 multiple myeloma cells” value was ~0.025 µg/mL.

B2: Fc-engineered humanized anti-CD37 antibody B2 (S239D/I332E) (antibody, human IgG1, kappa, V domains shown)
VH: AVQLVQSGAEVKKPGSSVKVSCKASGYSFTGYNMNWVRQAPGQGLEWMGNIDPYYGGTTYNRKFKGRVTLTVDKSSSTAYMELSSLRSEDTAVYYCARSVGPMDYWGQGTLVTVSS
VL: DIQMTQSPSSLSASVGDRVTITCRTSENVYSYLAWYQQKPGKAPKLLVSFAKTLAEGVPSRFSGSGSGTDFTLTISSLQPEDFATYFCQHHSDNPWTFGQGTKVEIKR
B2: the “ADCC EC50 on RPMI 8226 multiple myeloma cells” value was ~0.025 µg/mL.
